According to the supplement of paper PMC12042874:
± gives the uncertainty stated by the source.

Test: amyloid nucleation score (Sup35N fusion, yeast selection) (log enrichment); library NNK2; higher = more nucleation; inactive = no reads after selection
How it was run: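 Nucleation score is defined as the DiMSum log enrichment of output over input reads, with centring on the mode score of non-aggregating sequences. A minimum of 100 input reads was required for each sequence. Reads came from Illumina sequencing of plasmid inserts from psi-negative yeast expressing Sup35N fused to peptides of 20 random codons, induced with 100 μM copper sulfate for 24 hours and grown 7 days at 30°C on medium lacking adenine and uracil.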

| Substance | amyloid nucleation score |
| --- | --- |
| SDQQYGCDWVWLGRGPIEVA | 0.252 ± 0.28 |
| TLLDKLK | inactive |
| TYATNSRRNRNVYLRPHCQI | 0.117 ± 0.3 |
| TSYSTPRMGPLTPRLSSG | 0.388 ± 0.25 |
| FWALCVASVICYFVRMLSLA | 0.169 ± 0.3 |
| GAIRFK | 0.223 ± 0.54 |
| DNKSCFTNVWNYNVTEHWGH | -1.4 ± 0.54 |
| YSNSGVTWLRMHNVMFCGEG | -0.122 ± 0.32 |
| TFRDYQYMYFRSRNII | 0.034 ± 1.1 |
| SNITDWVTTKVRMEKRPVVQ | inactive |
| HPTLEPGKHYLRVSKSNTSR | 0.404 ± 0.26 |
| YHYANDMFFN | -0.727 ± 0.56 |
| GGDAQACVGHLSHKLCWLSV | 1.65 ± 0.16 |
| CRVNRGRGNSTTLYMMDFGY | 2.7 ± 0.088 |
| SVNNHGRLYVWLERLSYTTF | 2.24 ± 0.14 |
| RCSSRPCDLCVTEWIRRMEG | 0.357 ± 0.45 |
| SYADRVILLVSCVVPWAPLR | 3.31 ± 0.15 |
| DVQWTGPRPFPFV | 0.679 ± 0.4 |
| VCACLNMTCVFFILTGNGVK | 7.59 ± 0.039 |
| AVIVAIFCSSGYYRHFYTFT | -0.214 ± 1 |
| QWVVTRDFVE | -0.041 ± 0.63 |
| YSSFIDNHFAVRR | -0.448 ± 0.49 |
| GQDITDTFTLNCSRGFTCIR | 0.091 ± 0.34 |
| AFEPDIK | -0.738 ± 0.62 |
| FRRFCQDILYICMRKDMVQG | 0.833 ± 0.8 |

| Substance | amyloid nucleation score |
| --- | --- |
| HDKAHLRTCVVFRLESSGG | 4.29 ± 0.085 |
| NWDNSNLVFLYNSGLGNYVS | -0.874 ± 0.78 |
| RRDFWPSVSLGCDFRIRFPR | 2.1 ± 0.12 |
| AAPVMH | -0.354 ± 0.76 |
| LIGAATSKNVIRCNGWDGDQ | 0.848 ± 0.57 |
| MLFGFFGIPRGSRVLFSNV | inactive |
| EQKGSVTYCGYKMSDV | 4.97 ± 0.062 |
| SVYLNPHPTLMGNQSVLKLI | 1.29 ± 0.66 |
| CCRGLIRMLDCCNYRRK | 3.75 ± 0.067 |
| FSWFDWKGYVLSWIRSYSSE | inactive |
| VVWEYIRYRCCTYDAVYTRS | 0.522 ± 0.74 |
| RRRIRVCGSWFSGYN | -0.527 ± 0.5 |
| NCDRPTLEMSVNRRLFSCPE | 0.54 ± 0.27 |
| YKLGTRMSECLRNNVLDSSS | inactive |
| TAGSTSSEADISLF | 4.02 ± 0.13 |
| RYNHRFKVVLSHNIDLWQGS | 0.689 ± 0.47 |
| SMPLASSMSKHNHWHLV | 0.13 ± 0.35 |
| LRVYKTNTRQDLKLDTIMVG | -1.14 ± 0.34 |
| VKRYDS | inactive |
| VLFRELRSTTASRTGDGDMM | 4.61 ± 0.057 |
| SMYVINRSI | -0.198 ± 0.31 |
| IFPEL | -1.11 ± 0.45 |
| YNCGSLILNRISSGL | -2.21 ± 0.76 |
| SCCMGICGKDLCDGIELKFP | -0.936 ± 1 |
| LRGMTLFTPVTLTNSNCMVT | 0.437 ± 0.18 |

| Substance | amyloid nucleation score |
| --- | --- |
| VPPPVGVIYGIQ | 0.637 ± 0.32 |
| PSLWFLCRYGVTSIGLVFTL | -0.159 ± 1.1 |
| SVCSSRGDAMSGVLPCAGGL | 0.124 ± 0.55 |
| WYFPSVKIIENLW | 6.035 ± 0.038 |
| GYVGLGFNLTHAFGFGSLAG | 0.656 ± 0.23 |
| TGAVKLTSAAIINCTYHARM | inactive |
| VQDYKSVRYVGNSRIRVGGS | -0.392 ± 0.79 |
| LPGSRHNSRMSLRTQVVKVL | inactive |
| KQFDMDAWLTWSRMVFMSPV | 0.044 ± 0.39 |
| SIRRTLVGQRAHEGKFWYGV | -0.504 ± 0.63 |
| FRYLYVLYGFYMVVTWYLRV | -0.088 ± 0.63 |
| ILLRMTITCMFTPYHAERRG | 4.61 ± 0.07 |
| RLTRALLCFTNKALDQCCST | inactive |
| HVLSLGAGWKYVGVDECKE | 0.317 ± 0.31 |
| FATQGSHKAVLGRSVHHLCR | -0.447 ± 0.61 |
| FIIRYLYYKS | inactive |
| LFAYCMDSHLHTTSKFILTL | 0.047 ± 0.5 |
| FSMMFIL | 3.57 ± 0.075 |
| HNVEGRDRVVLMFSIKCCML | 5.92 ± 0.061 |
| MEPSVIRF | -0.271 ± 0.55 |
| RLAFSKE | -0.065 ± 0.46 |
| NEIFGTVIC | -1.12 ± 1 |
| EITEDSMVLVRWSGARNFHM | 2.56 ± 0.15 |
| STWLS | -0.626 ± 1.1 |
| GEKTVLVYMVG | 4.9 ± 0.07 |

| Substance | amyloid nucleation score |
| --- | --- |
| ALINHWNLVTFS | inactive |
| NELFWFNMSFSCPKWGICNL | 4.17 ± 0.043 |
| NQRHVIPNSIVLWWGELDLF | 0.465 ± 0.8 |
| ICVRERNRSYRMPFMMFVVR | -0.017 ± 1 |
| GPVLGEFVEGSGNANGDEQV | -0.107 ± 1 |
| EFYFG | 0.599 ± 0.8 |
| KPSKYPVYLLGVVKVQVDYD | -0.849 ± 1.1 |
| KYNLRDSNCSTCMFGSSRVS | 4.251 ± 0.04 |
| CNEDFLSQLVVLHFKEYGDN | inactive |
| ITPFHT | -0.448 ± 0.3 |
| MIPKVFSIRKSVGIYWNAEY | -1.04 ± 0.39 |
| GMADWNWFFPILFDPMGTGL | -0.357 ± 0.49 |
| VNGSIARYGVCFVARCHVIS | 0.246 ± 0.45 |
| KVRTLINLRSRVTLRYDLSI | -0.237 ± 0.24 |
| FFGGNCKVK | -0.146 ± 0.32 |
| YTDLG | 0.563 ± 0.44 |
| SLVSFFVIKRSYFSTRLCTG | -0.399 ± 0.61 |
| VHFCLKH | 0.241 ± 0.22 |
| TIVLGSPANHHTLKCKERGK | 0.197 ± 0.56 |
| GTVFCYLM | -1.05 ± 1 |
| ELDGYLVLFFTGLNP | -0.418 ± 0.63 |
| FKVRIVGPLTAGMVE | -1.01 ± 0.34 |
| MLRGSRWPSSGTFSCDDSKR | -0.038 ± 0.45 |
| PQHFGEPTLIMVGKGLGCLR | 0.178 ± 0.77 |
| IRESGVYTNLYSVVRVEEKT | 0.012 ± 0.38 |

| Substance | amyloid nucleation score |
| --- | --- |
| DEMARVYIHY | 0.183 ± 0.74 |
| EYFFYLLSSIMHIE | 2.45 ± 0.1 |
| VLVMVRTFNGNILPFLAPDL | 5.714 ± 0.024 |
| VRNFCFDYSVWYENGLTWKR | 0.527 ± 0.66 |
| SLWVASGQSFSDSRQRNVAG | 2.27 ± 0.19 |
| PIGINSVKVSNYINLRYCAC | 5.736 ± 0.043 |
| PQLHSLCT | -0.214 ± 1 |
| SLGSSWCNSDLLAL | -0.311 ± 1.1 |
| SNRHSVRKAAWIWGRDFLRA | 0.346 ± 0.38 |
| LVCYV | 0.611 ± 0.46 |
| LVRDHRNRVGFCQMSQ | 0.248 ± 0.44 |
| SRLKIFIPNVFL | -0.067 ± 1.1 |
| GPSLDLDNVDYIGDSTTYQL | inactive |
| TFSCCACWGCFTRNV | 10.55 ± 0.047 |
| GKIRIENGLRGSLGDIRHNI | -0.623 ± 1 |
| LYLKFYLCTGKDNDWNT | inactive |
| RWCSLDSQSDYSSM | -0.681 ± 1 |
| SPFNRLHY | -0.101 ± 1.1 |
| PYIWYPISECRGSSSFETYA | 0.29 ± 0.74 |
| PAKERLFRVETGRFRMKGSW | 1.63 ± 0.13 |
| IKVNCIEYYHSLRSRFDTSA | 0.065 ± 1.1 |
| PEILMSDGIRKLCSVYVFLR | inactive |
| VLDAHLY | inactive |
| NATEGFESFWM | inactive |
| NLVTYDLE | 3.79 ± 0.052 |

| Substance | amyloid nucleation score |
| --- | --- |
| CWRVDSFVLGNHNGIGVCFV | -0.918 ± 0.41 |
| YFSCEFDTYHGEYCCMWQIM | 0.069 ± 0.8 |
| FYINVRLYARVACRCMRVPC | 5.4 ± 0.076 |
| ISTYSMYACFKMSL | 4.88 ± 0.1 |
| IRFDFSC | 1.51 ± 0.17 |
| NSTDSSFGKARYFLSNSYWV | inactive |
| RTYEMKAMRVASWQSS | 1.9 ± 0.098 |
| AVRPGSRSWGVIRGVNSTFL | 1.08 ± 0.43 |
| VFIVMYSKFLKHVYGTTLTN | inactive |
| RYYHLCAI | 0.289 ± 0.8 |
| FLVLIQRKAQGITLQREGTW | 5.84 ± 0.069 |
| PMISKVCHILKRVEPSWGMR | -0.199 ± 1.1 |
| IKERGLCRWMYARFKGKSAI | inactive |
| RPGHYRTWYFSGFYSSPCQT | 1.49 ± 0.19 |
| PCQCKV | 4.16 ± 0.072 |
| WIFFHGGRMRTCYRDAVGEV | -0.484 ± 0.36 |
| LVLAASTFQYSGRGYASDML | 1.49 ± 0.29 |
| NDLSWVRLSYHGLVLLGDVM | 0.193 ± 0.34 |
| HMFPRWPFDVVKKDPTTTHL | 0.31 ± 0.41 |
| FTNIGSEYDMTGLNEGSSMP | -0.411 ± 0.29 |
| AIVGEMMALFYDNLSRGGVH | -0.505 ± 0.47 |
| RVSDRHV | 1.42 ± 0.099 |
| RGGRSVRTVNWPSYMMSVPD | -0.076 ± 0.3 |
| FYESKMGVMINFNWFYDTTS | 6.88 ± 0.069 |
| SIANLPFISLL | -1.62 ± 0.54 |

| Substance | amyloid nucleation score |
| --- | --- |
| WFGLDVNCLRSWFGLWKFVE | 0.089 ± 0.56 |
| RVPGPVHSSCYTAARFFCPM | 1.83 ± 0.14 |
| LVAKHSG | 0.693 ± 0.27 |
| ALTVKSQLCG | -1.71 ± 1.1 |
| FNLAPLMVIMPGIMGWGLLG | 1.67 ± 0.16 |
| VQDQNRREAEVSSKGGTCSW | -0.42 ± 0.35 |
| YDDKLHRPDDFGCRDHSPGM | 0.495 ± 0.41 |
| PSSSVCNINCYSKRSDRSVV | -0.09 ± 0.63 |
| TGDCRT | 0.233 ± 0.2 |
| AHIVGMSSSWRLKRYISIES | 0.768 ± 0.43 |
| GGDAYGRINAASYARIPRLS | 0.902 ± 0.22 |
| RARPC | inactive |
| WTYACPKRHNVIVVC | 3 ± 0.062 |
| CVNITYI | 4.625 ± 0.031 |
| TLSSYLVALNQRGAGSLWYV | 0.825 ± 0.8 |
| TYSTSSLYRMEIHLAFSASV | -0.22 ± 1 |
| SYYSNSLVGDFPVPISNSVM | -0.249 ± 1.1 |
| FSRTTAHMTLDMYFTGRDGY | 5.79 ± 0.058 |
| YWANMVG | -0.328 ± 0.48 |
| LRSFM | -0.591 ± 0.5 |
| GSYPGRLFTCVKMGVT | 0.363 ± 0.65 |
| SSEEFNVCYYGDPYKSVRTR | 0.341 ± 0.47 |
